Assay results reported in the supplement of paper PMC12042874.
± gives the uncertainty stated by the source.

assay: amyloid nucleation score (Sup35N fusion, yeast selection) (log enrichment); library NNK2; higher = more nucleation; inactive = no reads after selection
Outline: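 The nucleation score is a DiMSum log enrichment of output over input reads, centred on the mode score of non-aggregating sequences. Sequences under 100 input reads were excluded, and reads came from Illumina sequencing of plasmid inserts. Psi-negative yeast expressing Sup35N fused to peptides of 20 random codons were induced with 100 μM copper sulfate for 24 hours and grown 7 days at 30°C on medium lacking adenine and uracil. Random libraries had three technical output replicates.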

In order of rising amyloid nucleation score:
1. FRALFSNVVRVDMAMAAGFL  -1.79 ± 0.78
2. HALGGDWHGLGGINS  -1.43 ± 0.55
3. NFNVQKIFNGDCDLVWRGFV  -1.31 ± 0.76
4. SDYHLFTYTLGINSTLDGRV  -1.3 ± 0.38
5. LNSANSFWCVRRYCGTAQMQ  -1.29 ± 1.1
6. YYSCPASLLFNTGLPVKYSW  -1.26 ± 0.36
7. VVIAKDIMFSGSRINMVGSV  -1.23 ± 1.1
8. SSYTLGFFRCNRFWCLCIDC  -1.2 ± 0.56
9. WSCYKNWG  -1.13 ± 0.5
10. YEVSIIFCRLFSILIRPGTS  -1.1 ± 1.1
11. VNSLSGHFFVFFRLLFTTMV  -1.1 ± 0.41
12. PARTYILYNPDAGMSLKWSS  -1.06 ± 1.1
13. IQSNAQESHNSNICESYNND  -1.02 ± 0.62
14. LNGCSRILAFYMGCSCGGLM  -1.02 ± 0.76
15. LLNLTSLLRKCLFKNRRKFI  -0.972 ± 0.36
16. FFGYAGCNRPVNLSYGGRFN  -0.952 ± 0.32
17. TNSGMWGKLSACFYFVMQYL  -0.936 ± 0.27
18. AIIGKFVGVCCD  -0.931 ± 1.1
19. SGCCR  -0.925 ± 1
20. RIIYEAC  -0.865 ± 0.23
21. TRCGMEAYMSLDMGLYERPM  -0.762 ± 0.41
22. LNGSADTLD  -0.755 ± 0.41
23. CKTTQDSDITCK  -0.747 ± 0.79
24. SKGYYTLKVTYWTFR  -0.745 ± 0.44
25. SICASWNRINGIVTKLGWSE  -0.739 ± 0.32
26. GYYCDYSNTSRATRNMASKR  -0.719 ± 0.32
27. GKQTP  -0.711 ± 0.45
28. VISSMFNLIKYGSVWSLRGL  -0.706 ± 1
29. CFFFISAVGPEILIVGFLGV  -0.684 ± 1
30. FFGLVNWVGLGVHRSMTFAK  -0.609 ± 0.41
31. LFTVYFKK  -0.6 ± 0.63
32. DMYWCIYDRFMSLSWKT  -0.597 ± 0.53
33. IIHSLARFIC  -0.594 ± 0.26
34. CLLLLCNPRISAE  -0.582 ± 0.76
35. WDCGQTIYGFWDD  -0.58 ± 0.48
36. TVAGYCVPSSSCRTGTFTVC  -0.567 ± 0.33
37. ICSSYALGQSTETG  -0.559 ± 0.76
38. IHWNKIMRFTFKYGILLYPS  -0.525 ± 1.1
39. SPSDSAL  -0.501 ± 0.64
40. IGIAKYLREGRSSPTESL  -0.5 ± 0.33
41. HLFACSTYKSSHRVQVCTVI  -0.497 ± 1
42. KNRRFT  -0.493 ± 1.1
43. IIHTWLWTHRSIR  -0.406 ± 0.5
44. ACLLLRSMFSKQRLTFR  -0.38 ± 0.76
45. LIDNFS  -0.351 ± 0.45
46. TITCLFKVRRCVYV  -0.325 ± 0.55
47. HFNSTNPTRLLVDEEFFYFE  -0.317 ± 0.5
48. CYLMKSFMNLSDRNVFGNVT  -0.295 ± 0.32
49. YTTRSVMVSCGYCR  -0.29 ± 0.27
50. NTKYRRFFFNTVRLLHM  -0.28 ± 0.79
51. LNGGKLWNHRDLWDRTGQVY  -0.266 ± 1
52. QWRINSRLFG  -0.266 ± 0.22
53. LAFRFDVLKWINA  -0.263 ± 0.27
54. HQFYHFAEENN  -0.249 ± 1
55. LYIALIFSISHGWCIAFRLT  -0.214 ± 1.1
56. RGRTGRCSAFSQSILNGLRA  -0.181 ± 0.63
57. SSLTANGNNSMT  -0.173 ± 0.63
58. VHNCCTVVSLRREDESVYTN  -0.146 ± 0.38
59. AWETFELVLY  -0.145 ± 0.76
60. SPGRLFATEFVVVYVKYHSP  -0.121 ± 0.37
61. MMDRV  -0.092 ± 0.65
62. DYCSYTAL  -0.081 ± 1.1
63. NIWFKFPHVLNS  -0.063 ± 0.76
64. ANGGYMVYSFAEEYYYDWCT  -0.063 ± 0.29
65. KGDQKSTFCVRPFWESPNIV  -0.046 ± 0.74
66. MDSIHFV  -0.029 ± 0.41
67. FEGWVWFIPEASEHSYEHVN  -0.002 ± 1
68. ERSNFWPRVQTPCESVA  0.016 ± 1.1
69. CLKFFADGSQAGCSERAGLR  0.041 ± 0.28
70. WFFRVLCLCRTLWNHYSFF  0.054 ± 0.79
71. PDSGVSDESHLRCLPGVPRI  0.066 ± 0.28
72. INGWEPSIIDVIYNAHQIGP  0.107 ± 0.79
73. TGCTFCKSMCLYGETSRKDN  0.132 ± 0.36
74. KSICARVFTIQMRNVSVQSS  0.158 ± 0.43
75. DCMLNGLRWEMMLYKLDCFT  0.189 ± 0.64
76. KDLPFGTYGNGGAGSRTMRH  0.19 ± 0.27
77. ESDVSRDRMMALRNMYFCHR  0.192 ± 0.74
78. SFLWCPGG  0.221 ± 0.33
79. IPSRAVVPFFLDLRPHADVS  0.25 ± 0.46
80. YSSSSSTYNAWFSMPESHEL  0.264 ± 0.15
81. LNIIMGSSDFCPESFYKFW  0.266 ± 1
82. YSSADGPDSDMCRSVLKLVI  0.287 ± 0.25
83. SGMWSNRDEALSCWRG  0.29 ± 0.54
84. LCRNSSVFRCSGK  0.311 ± 0.17
85. RGVKDRKRQVQFEKSSRSMA  0.361 ± 0.21
86. LDWAWACSWVVA  0.389 ± 0.8
87. KTLTVFAISYC  0.482 ± 0.55
88. RYPIVRTDMYIIVKFI  0.509 ± 0.81
89. AYRLGFNVMLTDAVVARDIL  0.512 ± 0.66
90. LLCSPEGVYGKCTGGFRQTL  0.581 ± 0.39
91. CARFAN  0.599 ± 0.64
92. NHCPHTKWGTTYCAHGCIHA  0.639 ± 0.46
93. YGSVR  0.669 ± 0.37
94. AQCAYTTDGFPFLCWRSGTF  0.701 ± 0.6
95. RMQVYGDMSKCKDSWFCFRT  0.703 ± 0.4
96. VNGHLNFAS  0.712 ± 0.56
97. SRDVSLRYCTWCPGVN  0.789 ± 0.22
98. VFSEWWFTANAACSAQCYEW  0.789 ± 0.33
99. HNYIWARTRSRGRPMYSVPA  0.798 ± 0.33
100. DVHNMGSPGVLAMLVTSDGK  0.876 ± 0.74
101. LLWCIERG  0.946 ± 0.51
102. LKCSFAVTDAWIGNRRAQRQ  1 ± 0.2
103. VMGNFRFYRSMLAFDYDEGV  1.14 ± 0.18
104. GHIQLRTVYGV  1.2 ± 0.68
105. GMYLVENLLFRAQCRSTHWQ  1.25 ± 0.37
106. GICPWTRLALFCRSGNVYRG  1.34 ± 0.15
107. FAYSLHRLLWIRCMYSNGR  1.45 ± 0.17
108. MEFSAKFIYFS  1.48 ± 0.11
109. GDVCNVLLAYWVFVTLSFSV  1.5 ± 0.58
110. VLWTIKGFPC  1.63 ± 0.11
111. MQTCYSDQMDFVYEAYYCTW  1.7 ± 0.1
112. PYATNSRRNRNVYLRPHCQI  1.77 ± 0.12
113. HIIIFLWYRRHFSS  1.78 ± 0.22
114. SNFETDTL  1.82 ± 0.14
115. NPINRYCVAHEKLFRNVRSV  1.87 ± 0.29
116. DRWGFDFCQLLV  1.95 ± 0.12
117. TSLFVLVVGLGLCK  2.91 ± 0.19
118. RDTVFYILSAWNLSAGSRKA  3.04 ± 0.089
119. VGELVMLFSKYSSVNVRGFA  3.04 ± 0.075
120. VYVRFWESSSCYTRGRNGWN  3.08 ± 0.086
121. KMAMTVLILPYVPGQLRLTE  3.12 ± 0.1
122. ELGFGMMIAPSKGEKGDGML  3.37 ± 0.12
123. NQWDPMFDRIPTMAALAGPG  3.4 ± 0.1
124. TFNYHVTYFLGHFFSTYGRF  3.49 ± 0.064
125. LCVYMFT  3.51 ± 0.12
126. LGDAHALCGRLTVCRGGTGP  3.58 ± 0.075
127. NCSSMFCIICKKCCVDAFIL  3.73 ± 0.048
128. ATIGSLWRNYNERLFST  4.06 ± 0.089
129. IAGLTISSAISGSWDVVKPS  4.38 ± 0.052
130. SKYMRFGDTFLFARMHGKGD  4.49 ± 0.048
131. NGISYQRMTGNGFVESNGAS  4.683 ± 0.034
132. YNSCFYQKWVMCGHSCYHQV  4.77 ± 0.11
133. GHRNTDRSRREDRTKW  4.82 ± 0.05
134. ITSFKWVLKGSWCKGRESKF  4.87 ± 0.068
135. RSVACVDDMHE  4.916 ± 0.049
136. IVDHVYCIVILDLEHFFYNE  5.02 ± 0.083
137. HPRTPGLVIEDKKNLFLVWR  5.22 ± 0.057
138. VSQARVLCFMNFGRFLTLNE  5.51 ± 0.09
139. RAHVYSSKDP  5.92 ± 0.059
140. LIMLASSLWTRKGGDTST  6.292 ± 0.053
141. NLSFLEPLYWNEVSYFVRCC  6.369 ± 0.023
142. CINVYKY  6.768 ± 0.026
143. MEVNLKVKSLCQWGT  6.791 ± 0.045
144. VQFTRSVRFTLQFCARSDKT  6.91 ± 0.045
145. LATLVNCCTIVNRSNFGIMH  6.985 ± 0.061
146. YLYGGVYKIKIMILPFDRAL  7.621 ± 0.044
147. SLLFVNNWFSVCRKASCIGN  7.787 ± 0.052
148. VTWALCAGGRQFVTFSS  8.505 ± 0.045
149. RSLSLLLVFLAMCAIMVPMR  8.575 ± 0.04
150. VDWFLYFCSPTFCHVL  8.741 ± 0.063
151. LYQNSTILWLCCLWPVPYSG  9.921 ± 0.076

For QDYTDHPGIIFSFRGCSRDT, the amyloid nucleation score was “inactive”.
With TGLVFYSSRFYVTVSMVLKE the amyloid nucleation score was “inactive”.
With RPASKTMEDGCGLI the amyloid nucleation score was “inactive”.
With YNNAGGQVDLNLCYGLDVFL the amyloid nucleation score was “inactive”.
In the case of LIWVRGNEGRFGGRLVLVVE, the amyloid nucleation score is reported as “inactive”.
For KSRFIFRVSVLDPRASVAWL, the amyloid nucleation score was “inactive”.
In the case of NSREALVKVGNECP, the amyloid nucleation score is reported as “inactive”.
With TGIDHYFWLFFSYLGTLWSK the amyloid nucleation score was “inactive”.
In the case of RELYYRMAVLNQSTTTLYRG, the amyloid nucleation score is reported as “inactive”.
In the case of ILFLVNLFSLSIANVFR, the amyloid nucleation score is reported as “inactive”.
For FTWVYMHNIIFLLGSRLYIK, the amyloid nucleation score was “inactive”.
In the case of FRRRQNRAHKYGALNYSMGS, the amyloid nucleation score is reported as “inactive”.
With FYLLVFDLHDSCL the amyloid nucleation score was “inactive”.
For NGLLSRNCIWSFGFESEVEG, the amyloid nucleation score was “inactive”.
For FICSAYFECRRDSYEFFVGC, the amyloid nucleation score was “inactive”.
With FFTSSHNFCYLMGYNMIWFK the amyloid nucleation score was “inactive”.
In the case of VGIRRYVRFKVLHNRVNVHE, the amyloid nucleation score is reported as “inactive”.
In the case of SSTEMSFYMIHKIFAVY, the amyloid nucleation score is reported as “inactive”.
In the case of STSICYFLYRLWSHISLNSL, the amyloid nucleation score is reported as “inactive”.
